Results published in article doi:10.1101/2023.08.18.553786.

How the values were obtained:
[1] = target: CDTb, the cell-binding component of the C. difficile binary toxin (CDT), active wild type (Clostridioides difficile); assay: cryo-EM structure
[2] = target: CDTb^D623A/D734A, active Ca^2+-binding mutant of CDTb (Clostridioides difficile); assay: cryo-EM structure

Substance “CDTb, the cell-binding component of the C. difficile binary toxin (CDT), active wild type (natural protein)” has a stoichiometry N [1] of 7.
“CDTb^D623A/D734A, active Ca^2+-binding mutant of CDTb (natural protein)” gave a stoichiometry N [2] of 7.
